Substrate: O=C1C=CCCC1
Assay: purified protein
Format: biochemical, Bacillus subtilis
Conditions: 0.15 mM NADPH, 40 mM HEPES pH 7.5, 35 °C, anaerobic (glucose oxidase/glucose), 15 nM enzyme

B1: enoate reductase YqjM (Bs-YqjM) (Bacillus subtilis subsp. subtilis str. 168) (protein)
chain: MARKLFTPITIKDMTLKNRIVMSPMCMYSSHEKDGKLTPFHMAHYISRAIGQVGLIIVEASAVNPQGRITDQDLGIWSDEHIEGFAKLTEQVKEQGSKIGIQLAHAGRKAELEGDIFAPSAIAFDEQSATPVEMSAEKVKETVQEFKQAAARAKEAGFDVIEIHAAHGYLIHEFLSPLSNHRTDEYGGSPENRYRFLREIIDEVKQVWDGPLFVRVSASDYTDKGLDIADHIGFAKWMKEQGVDLIDCSSGALVHADINVFPGYQVSFAEKIREQADMATGAVGMITDGSMAEEILQNGRADLIFIGRELLRDPFFARTAAKQLNTEIPAPVQYERGW
notes: full gene, N-terminal 6xHis tag (p15TvL), tag cleavage not mentioned; expressed in E. coli LOBSTR BL21(DE3); FMN loaded
- Km: 350 ± 60 µM
